Target: T1, ScaI restriction endonuclease (Streptomyces caespitosus) (UniProt O52691)
T1 sequence: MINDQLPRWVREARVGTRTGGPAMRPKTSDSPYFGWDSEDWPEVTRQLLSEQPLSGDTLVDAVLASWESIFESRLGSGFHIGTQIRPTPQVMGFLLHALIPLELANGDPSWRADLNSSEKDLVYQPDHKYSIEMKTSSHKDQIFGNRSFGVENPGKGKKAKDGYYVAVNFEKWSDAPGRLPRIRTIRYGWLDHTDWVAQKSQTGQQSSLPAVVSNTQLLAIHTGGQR
Assay: cleavage_in_vitro
Settings: diluted cell extract, 1 ug DNA, 37 C, 1 h

lambda DNA (ScaI sites) gave an activity (units/g wet cells) of 1e+06.

From patent US5721126
